Experimental data published in paper PMC11806106.

Legend:
[1] = biological target: MOR FRET sensor (rat MOR with sYFP2 inserted after G267, truncated after T370, mTurquoise2 at the C-terminus) (rat) (UniProt P33535)
[2] = biological target: MOR FRET sensor (rat MOR with sYFP2 inserted after G267, truncated after T370, mTurquoise2 at the C-terminus) (rat) (UniProt P33535); remark: listed apart in the source

T370 sequence (P33535 1-370): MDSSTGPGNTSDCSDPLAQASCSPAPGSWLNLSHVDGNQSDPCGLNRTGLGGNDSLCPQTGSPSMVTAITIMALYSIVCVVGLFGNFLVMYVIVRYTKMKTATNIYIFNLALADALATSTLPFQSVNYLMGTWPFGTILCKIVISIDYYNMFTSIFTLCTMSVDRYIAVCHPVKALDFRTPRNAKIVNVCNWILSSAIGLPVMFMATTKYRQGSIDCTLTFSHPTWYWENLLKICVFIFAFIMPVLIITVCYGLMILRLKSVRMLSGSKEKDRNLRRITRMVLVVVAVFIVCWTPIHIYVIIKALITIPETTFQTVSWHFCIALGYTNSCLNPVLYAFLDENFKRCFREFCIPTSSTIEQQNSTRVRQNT

Substance	EC50 of the agonist-induced change of the FRET emission ratio of the MOR FRET conformation sensor (concentration-response, 96-well plate reader) [1]	half-time of deactivation of the MOR FRET sensor after washout of 100 µM agonist (single-cell FRET) [2]	on-rate Kon, calculated from the Koff of sensor deactivation and the EC50 (single-cell FRET, 100 µM agonist) [2]
DAMGO (peptide)	430 nM	< 10 s	167000 M⁻¹ s⁻¹
Met-enkephalin (peptide)		< 10 s	
